Experiments:
[1] = biological target: T1, Human ROR2 (human, UniProt Q01974); experiment: Octet
[2] = biological target: T2, human ROR1 'Ig-Frizzled domain' (human, UniProt Q01973); experiment: Octet
T2 construct: used plain or biotinylated

[3] = biological target: T3, recombinant human ROR1 extracellular domain protein (human, UniProt Q01973 30-406); experiment: Octet, mono-valent binding to human ROR1
T3 construct: extracellular domain; Analyte in solution in the Octet assay; also called human ROR1 ECD
T3 sequence (Q01973 30-406): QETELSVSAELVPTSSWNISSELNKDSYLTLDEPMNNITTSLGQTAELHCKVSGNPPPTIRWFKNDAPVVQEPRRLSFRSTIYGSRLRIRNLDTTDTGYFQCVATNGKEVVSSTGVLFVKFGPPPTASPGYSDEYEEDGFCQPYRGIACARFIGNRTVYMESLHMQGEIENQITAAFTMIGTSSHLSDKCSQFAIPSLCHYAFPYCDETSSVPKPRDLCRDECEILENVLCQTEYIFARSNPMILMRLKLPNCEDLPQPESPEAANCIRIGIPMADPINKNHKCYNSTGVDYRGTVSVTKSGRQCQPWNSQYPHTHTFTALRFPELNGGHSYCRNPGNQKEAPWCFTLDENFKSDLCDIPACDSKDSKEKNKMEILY
Text: The heavy and light chain expression plasmids generated from each well were transiently co-transfected to produce rabbit/human chimeric antibodies. Recombinant antibody supernatants were confirmed to contain anti-ROR1 antibodies using bio-layer interferometry analysis on a ForteBio Octet Red 96 instrument. Anti-human Fc biosensors (Pall ForteBio) were used to capture antibodies in the supernatants. Association to ROR1 was observed by real-time interferometry by placing the biosensors in wells containing recombinant human ROR1 extracellular domain protein. Dissociation was measured after transfer of the biosensors into wells containing 10× kinetics buffer (Pall ForteBio). The software provided by the manufacturer was used to analyze the interferometry data.

[4] = biological target: T1, Human ROR2; experiment: ELISA, direct coat; BCC supernatant
[5] = biological target: T4, human ROR1 'Kringle domain' (human, UniProt Q01973, biotinylated); experiment: ELISA, biotinylated antigen on avidin plate; BCC supernatant
T4 construct: also called biotinylated human ROR1 Kringle domain
T4 sequence (Q01973 308-395 limits assumed): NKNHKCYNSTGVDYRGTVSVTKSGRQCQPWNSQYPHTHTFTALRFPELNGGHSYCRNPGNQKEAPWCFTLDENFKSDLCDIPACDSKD

[6] = biological target: Human ROR1-CHO cells (human) (UniProt Q01973); experiment: FACS; BCC supernatant
Human ROR1-CHO cells (human), sequence (Q01973 30-937 limits assumed): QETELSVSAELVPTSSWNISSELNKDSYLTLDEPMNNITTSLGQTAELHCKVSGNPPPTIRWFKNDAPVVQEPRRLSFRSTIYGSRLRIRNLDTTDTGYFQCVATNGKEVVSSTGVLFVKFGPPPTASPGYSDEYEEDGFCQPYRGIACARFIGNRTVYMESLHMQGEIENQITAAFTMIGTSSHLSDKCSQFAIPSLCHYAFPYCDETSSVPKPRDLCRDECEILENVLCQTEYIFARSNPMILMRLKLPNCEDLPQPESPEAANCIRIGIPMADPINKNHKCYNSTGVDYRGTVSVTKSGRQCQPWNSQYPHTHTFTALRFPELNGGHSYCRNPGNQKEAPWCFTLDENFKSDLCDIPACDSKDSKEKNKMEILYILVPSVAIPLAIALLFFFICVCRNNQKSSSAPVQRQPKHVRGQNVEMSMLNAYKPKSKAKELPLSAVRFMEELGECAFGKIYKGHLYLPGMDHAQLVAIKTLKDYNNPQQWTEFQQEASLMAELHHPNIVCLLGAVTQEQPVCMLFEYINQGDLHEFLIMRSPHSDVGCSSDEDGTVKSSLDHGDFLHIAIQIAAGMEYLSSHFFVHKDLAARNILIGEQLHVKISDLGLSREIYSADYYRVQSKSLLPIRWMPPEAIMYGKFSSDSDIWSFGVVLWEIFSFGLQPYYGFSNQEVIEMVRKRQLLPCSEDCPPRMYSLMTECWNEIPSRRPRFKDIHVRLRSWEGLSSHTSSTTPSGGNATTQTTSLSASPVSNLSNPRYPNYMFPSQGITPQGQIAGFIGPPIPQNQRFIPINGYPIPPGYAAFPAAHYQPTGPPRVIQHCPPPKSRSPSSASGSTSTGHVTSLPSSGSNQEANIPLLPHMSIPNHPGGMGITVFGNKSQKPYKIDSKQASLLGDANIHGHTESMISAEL

[7] = biological target: Human ROR2 (human) (UniProt Q01974); experiment: ELISA, direct coat; BCC supernatant
Human ROR2 (human), sequence (Q01974 34-403 limits assumed): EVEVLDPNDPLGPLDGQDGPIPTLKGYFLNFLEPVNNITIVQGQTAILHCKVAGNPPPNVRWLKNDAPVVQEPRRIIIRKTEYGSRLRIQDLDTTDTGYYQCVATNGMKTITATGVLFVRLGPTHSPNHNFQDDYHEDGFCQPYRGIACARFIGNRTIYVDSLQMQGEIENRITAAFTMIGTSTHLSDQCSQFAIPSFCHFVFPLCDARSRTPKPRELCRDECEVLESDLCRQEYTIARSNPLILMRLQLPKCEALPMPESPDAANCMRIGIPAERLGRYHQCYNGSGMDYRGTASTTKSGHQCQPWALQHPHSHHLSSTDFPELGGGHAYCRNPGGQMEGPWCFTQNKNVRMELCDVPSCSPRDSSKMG

[8] = biological target: T5, human ROR1 'Frizzled-Kringle domain' (human, UniProt Q01973); experiment: ELISA, direct coat; BCC supernatant
T5 construct: used plain or biotinylated
T5 sequence (Q01973 165-406 limits assumed): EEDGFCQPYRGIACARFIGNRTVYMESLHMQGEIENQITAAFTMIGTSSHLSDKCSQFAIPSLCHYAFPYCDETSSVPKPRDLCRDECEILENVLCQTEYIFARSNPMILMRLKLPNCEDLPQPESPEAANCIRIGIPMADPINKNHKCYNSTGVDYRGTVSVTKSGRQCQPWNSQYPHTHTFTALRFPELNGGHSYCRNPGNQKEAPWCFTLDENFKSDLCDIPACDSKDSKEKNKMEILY

[9] = biological target: T2, human ROR1 'Ig-Frizzled domain'; experiment: ELISA, direct coat; BCC supernatant
[10] = biological target: T3, recombinant human ROR1 extracellular …; experiment: ELISA, direct coat; BCC supernatant
[11] = biological target: T6, mouse ROR1 (serum titer ELISA antigen) (mouse, UniProt Q9Z139 30-403, limits assumed); experiment: ELISA, direct coat; BCC supernatant
T6 sequence (Q9Z139 30-403 limits assumed): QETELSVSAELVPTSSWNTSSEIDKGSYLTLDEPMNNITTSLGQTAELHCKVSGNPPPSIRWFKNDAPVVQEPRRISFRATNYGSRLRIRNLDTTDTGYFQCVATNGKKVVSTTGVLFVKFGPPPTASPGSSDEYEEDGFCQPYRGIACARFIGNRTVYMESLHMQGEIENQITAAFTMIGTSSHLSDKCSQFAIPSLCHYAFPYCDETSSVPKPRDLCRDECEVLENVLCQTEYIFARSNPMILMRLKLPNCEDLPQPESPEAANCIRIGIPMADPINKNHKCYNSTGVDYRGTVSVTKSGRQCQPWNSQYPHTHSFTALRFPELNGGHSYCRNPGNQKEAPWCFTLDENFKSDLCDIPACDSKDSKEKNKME

[12] = biological target: T5, human ROR1 'Frizzled-Kringle domain'; experiment: ELISA, biotinylated antigen on avidin plate; BCC supernatant
[13] = biological target: T2, human ROR1 'Ig-Frizzled domain'; experiment: as above
[14] = biological target: recombinant human ROR1 extracellular domain protein (human) (UniProt Q01973); experiment: ELISA, direct coat; BCC supernatant
recombinant human ROR1 extracellular domain protein (human), sequence (Q01973 30-406): as the sequence (Q01973 30-406) above

[15] = biological target: T5, human ROR1 'Frizzled-Kringle domain'; experiment: Octet
[16] = biological target: T6, mouse ROR1 (serum titer ELISA antigen); experiment: Octet
[17] = biological target: T7, Mouse ROR1-CHO (mouse, UniProt Q9Z139); experiment: FACS, mouse ROR1-CHO
T7 construct: expressed on the surface of CHO cells; also called mouse ROR1 on CHO cells
T7 sequence (Q9Z139 30-937 limits assumed): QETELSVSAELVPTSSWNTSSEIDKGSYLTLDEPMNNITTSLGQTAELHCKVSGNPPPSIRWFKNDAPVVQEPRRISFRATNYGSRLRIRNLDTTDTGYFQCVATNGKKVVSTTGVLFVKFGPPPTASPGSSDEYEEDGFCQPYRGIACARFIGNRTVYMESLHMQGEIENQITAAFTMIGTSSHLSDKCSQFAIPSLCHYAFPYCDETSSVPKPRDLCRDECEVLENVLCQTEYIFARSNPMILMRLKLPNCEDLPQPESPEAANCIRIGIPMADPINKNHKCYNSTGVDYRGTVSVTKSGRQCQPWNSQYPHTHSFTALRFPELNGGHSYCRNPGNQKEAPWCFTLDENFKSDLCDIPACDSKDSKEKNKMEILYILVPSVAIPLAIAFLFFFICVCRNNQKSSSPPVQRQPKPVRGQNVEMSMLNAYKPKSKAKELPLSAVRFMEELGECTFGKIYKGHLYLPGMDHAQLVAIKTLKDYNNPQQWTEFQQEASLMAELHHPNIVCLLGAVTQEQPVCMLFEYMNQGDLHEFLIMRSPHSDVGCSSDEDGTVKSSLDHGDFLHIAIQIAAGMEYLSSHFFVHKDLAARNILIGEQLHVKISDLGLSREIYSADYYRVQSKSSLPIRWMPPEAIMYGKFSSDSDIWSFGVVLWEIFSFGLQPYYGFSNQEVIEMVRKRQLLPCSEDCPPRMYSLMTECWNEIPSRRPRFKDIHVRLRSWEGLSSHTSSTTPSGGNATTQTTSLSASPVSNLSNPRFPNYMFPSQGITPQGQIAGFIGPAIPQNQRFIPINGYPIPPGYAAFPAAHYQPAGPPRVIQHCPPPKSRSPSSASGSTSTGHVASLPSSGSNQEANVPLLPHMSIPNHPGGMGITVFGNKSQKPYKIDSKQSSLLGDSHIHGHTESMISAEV

[18] = biological target: T3, recombinant human ROR1 extracellular …; experiment: Octet, bi-valent binding to human ROR1

T1 sequence (Q01974 34-403 limits assumed): as the sequence (Q01974 34-403 limits assumed) above
T2 sequence (Q01973 30-305 limits assumed): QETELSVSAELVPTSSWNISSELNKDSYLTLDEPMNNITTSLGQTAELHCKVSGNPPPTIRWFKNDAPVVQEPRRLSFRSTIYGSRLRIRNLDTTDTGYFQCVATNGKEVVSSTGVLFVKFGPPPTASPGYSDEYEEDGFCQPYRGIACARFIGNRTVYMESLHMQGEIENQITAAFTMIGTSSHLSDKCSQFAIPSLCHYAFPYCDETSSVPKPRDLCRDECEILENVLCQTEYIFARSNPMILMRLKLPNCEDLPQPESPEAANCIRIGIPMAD

| binding result [1] | koff [3] [s⁻¹] | FACS MFI [6] [MFI] | ELISA OD450 [7] [OD450] | ELISA OD450 [8] [OD450] | ELISA OD450 [9] [OD450] | ELISA OD450 [11] [OD450] | ELISA OD450 [12] [OD450] | ELISA OD450 [13] [OD450] | binding result [15] | binding result [16] | binding result [17] | Binder | also measured |
| --- | --- | --- | --- | --- | --- | --- | --- | --- | --- | --- | --- | --- | --- |
| no binding | 1.26e-08 |  |  |  |  |  |  |  |  |  |  | 330F11 chimeric rabbit/human IgG antibody (antibody, V domains shown, Rabbit variable regions on human gamma-1 and human kappa constant domains) VH: QSVEESGGRLVTPGTPLTLTCTVSGFSLNNYWMSWVRQAPGEGLEWIGTISSGAYTWFATWATGRFTISKTSTTVDLSITSPTTEDTATYFCARYSSTTDWTYFNIWGPGTLVTVSS VL: DVVMTQTPASVEAAVGGTVTIKCQASQSINNYLAWYQQKPGQPPKLLIYRASTLESGVPSRFKGSGSGTQFTLTISDLECADAATYYCQSYNGVGRTAFGGGTEVEFKR | binding result [2]: no binding |
|  |  |  |  |  |  |  |  |  |  |  |  | 226E12 (antibody, V domains shown, chimeric counterpart m2; also called rabbit IgG of BCC well 226E12) VH: QSLEESGGRLVTPGTPLTLTCTASEFSLSNYYMSWVRQAPGEGLEWIGAINADSDNTWYPSWVKGRFTISKTSSTTVDLKITSPTIEDTATYFCARSVSNNFAEYNIWGPGTLVTVSS VL: AYDMTQTPSSVSAAVGGTVTIKCQASQRIYSYLAWYQQKPGQPPKLLIYRASTLASGVPSRFKGSGSGTEYTLTISDLECADAATYYCQQGASMVDVENMFGGGTEVVVK | ELISA OD450 [4]: 0.09 OD450; ELISA OD450 [5]: 0.41 OD450 |
|  |  | 20 | 0.23 | 0.32 | 1.94 | 4 | 0.17 | 2.23 |  |  |  | 323D10 (antibody, V domains shown, chimeric counterpart m5; also called rabbit IgG of BCC well 323D10) VH: QSVEESGGRLVTPGTPLTLTCTVSGFSLSRNAMNWVRQAPGKGLEYIGYISTSGTTFYANWVKGRFTISKTSTTVDLKMTSLTTEDTATYFCARDYNYAMDIWGQGTLVTVSS VL: AIDLTQTPASVEAAVGGTITINCQASESISSWLAWYQQKPGQRPKLLIYETSKLASGVPPRFSGSGSGTQFTLTISGVQCDDAATYYCQSYYRINNIGYDNAFGGGTEVEFK | ELISA OD450 [10]: 2.32 OD450 |
|  |  | 25 | 0.21 | 0.18 | 1.29 | 2.17 | 0.1 | 0.62 |  |  |  | 324E2 (antibody, V domains shown, chimeric counterpart m6; also called rabbit IgG of BCC well 324E2) VH: QSVEESGGRLVTPGTPLTLTCTVSGFSLSNNAITWVRQAPGKGLEYIGIISSSGTTYYASWAKGRFTISKTSSTTVDLKMTSLTTEDTATYFCAGAFSVWGPGTLVTVSS VL: AQVLTQTPSSVSAAVGGTVTINCQSSQSVNNNDLAWFQQKPGQPPKRLIYWASKLASGVPSRFKGSGSGTQFILTISDLECDDAATYYCAGGYSGNIYGFGGGTEVEVK | ELISA OD450 [14]: 0.48 OD450 |
| no binding | 1.35e-08 |  |  |  |  |  |  |  | no binding | no binding | no binding | 324C7 chimeric rabbit/human IgG antibody (antibody, V domains shown, Rabbit variable regions on human gamma-1 and human kappa constant domains) VH: QSVEESGGRLVTPGTPLTLTCTVSGFSLSGAGVSWVRQAPGKGLEWIGYIDSGATTYYASWAKGRFTISKASTTVDLKIASPTTEDTATYFCARGYYGMDPWGQGTLVTVSS VL: DIVMTQTPASVEVAVGGTVTIKCQASQNIGSDLAWYQQKPGQPPKLLIYTTSNLASGVPSRFKGSGSGTGFTLTISDLECADAASYCCQGGYFSGRNIYGNAFGGGTEVVVKR |  |
| no binding | 2.08e-08 |  |  |  |  |  |  |  | no binding | no binding | no binding | 323H7 chimeric rabbit/human IgG antibody (antibody, V domains shown, Rabbit variable regions on human gamma-1 and human kappa constant domains) VH: QEQLKESGGGLVTPGGTLTLTCTASGFTISRYHMTWVRQAPGKGLEWIGHIYVNNDDTDYASWAKGRFTISKTSTTVDLKITSPTTEDTATYFCARLDVGGGGAYIGDIWGQGTLVTVSS VL: QAVVTQTPSSVSAAVGGTVTISCQSSQSVYNNNDLAWYQQKPGQPPKLLIYYASTLASGVSSRFKGSGSGTQFTLAISDLECDDSATYYCAGGYDTDGLDTFAFGGGTEVEVKR | koff [18]: 0.0062 s⁻¹ |

Reference: patent US20210277109A1 (SYSTIMMUNE, published 2021)
